According to IntAct's records for PubMed 21965663:

Target: dyr1a_mouse Dyrk1a (UniProt Q61214)

Sequence of Calcipressin-1 (Homo sapiens), P53805-2 S112A;T192A (P53805 other isoform, or with tags, fused parts or gaps S112A;T192A): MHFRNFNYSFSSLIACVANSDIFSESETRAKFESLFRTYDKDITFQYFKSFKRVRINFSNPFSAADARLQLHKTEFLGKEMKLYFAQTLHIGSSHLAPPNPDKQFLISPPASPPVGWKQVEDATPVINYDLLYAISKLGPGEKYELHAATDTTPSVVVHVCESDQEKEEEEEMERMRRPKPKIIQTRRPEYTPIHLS
Sequence of Calcipressin-1 (Homo sapiens), P53805-2 S112A (P53805 other isoform, or with tags, fused parts or gaps S112A): as the sequence (P53805 other isoform, or with tags, fused parts or gaps S112A;T192A) above
Sequence of Calcipressin-1 (Homo sapiens), P53805-2 T192A (P53805 other isoform, or with tags, fused parts or gaps T192A): as the sequence (P53805 other isoform, or with tags, fused parts or gaps S112A;T192A) above

effect of a mutation on the interaction	Substance
decreasing interaction	Calcipressin-1 (Homo sapiens), P53805-2 S112A
disrupting interaction	Calcipressin-1 (Homo sapiens), P53805-2 S112A;T192A
decreasing interaction	Calcipressin-1 (Homo sapiens), P53805-2 T192A
